Results on 16 sequences are retold here after the DeepSol protein solubility set.

A short description of this data set: soluble on expression in E. coli; label from the status in PepcDB or PDB records.
For “SDPATCPIIPGCETTIEISKGRTGLGLSIVGGSDTLLGAIIIHEVYEEGAACKDGRLWAGDQILEVNGIDLRKATHDEAINVLRQTPQRVRLTLYRDEAPYKEEEVCDTLTIELQKKPGKGLGLSIVGKRNDTGVFVSDIVKGGIADADGRLMQGDQILMVNGEDVRNATQEAVAALLKCSLGTVTLEVGRIKAGPFHSERRPSQSSQVSEGSLSSFTFPLSGSSTSESLESSSKKNALASEIQGLRTVEMKKGPTDSLGISIAGGVGSPLGDVPIFIAMMHPTGVAAQTQKLRVGDRIVTICGTSTEGMTHTQAVNLLKNASGSIEMQVVAGGDVSVVTGHQQEPASSSLSFTGLTSSSIFQDDLGPPQCKSITLERGPDGLGFSIVGGYGSPHGDLPIYVKTVFAKGAASEDGRLKRGDQIIAVNGQSLEGVTHEEAVAILKRTKGTVTLMVLS”, the “soluble on expression in E. coli” value is recorded as “soluble”. Consider “TPIPHKITSFAEQMRGLRSESKVLELVVIPADHSIAELLKMKENEPVNKLVRVRYAEGEPLQYHTSYIPWKAAPGLAQEECTGSLFELLRTKYNIEISRGTESIEPILTDETISGHLLTNVGAPAFLSESLTYDKNEEVVEYAQIITRGDRTKFTVEQSYHS”, for which the “soluble on expression in E. coli” value was “not soluble”. “GSSEEESFFVQVHDVSPEQPRTVIKAPRVSTAQDVIQQTLCKAKYSLSILSNPNPSDYVLLEEVVKDTTNKKTTTPKSSQRVLLDQECVFQAQSKWKGAGKFILKLKEQVQASREDK”: the “soluble on expression in E. coli” value was “soluble”. In the case of “MDTDAIRSEIFGQLARPDNSGIPKYRRLSNILVEAIRRGVWQPGDRLPAEEQLTEMTPFSLGTVQRALRALTDEGLVIRMQGHGNFVADQQRQMADPWHCRFLDDESDGIVPIYSKAVQRAVVTPSETGPWQRYLHSGSVMRLDRIINVNDEFRIFSRFYADRELLQPLWHVPLEELDGANFKDIIMRQVGLPITEIDRSVRIRRIDAQAARLIGVAPEATVLFMQAVARAGRDACIYYQEFYIPETGRALQLPEQRPRVHGR”, the “soluble on expression in E. coli” value is given as “not soluble”.

For the sequence “GPGSMNERLEDIALTLVGAGKGILAADESTATIGKRFESIGVECTEDNRRAYREMLFTAKEAMESAISGVILFDETLRQKASTGQMLTDLIRDAGAVPGIKVDTGAKPLAAFPQETITEGLDGLRERLKDYYTLGARFAKWRAVIAIDAQTLPTRGAISQNAQALARYAALCQEAGLVPIVEPEVLMDGPSRQHSITRCFEVTKVVLHTVFKELFEARVLFEGMILKPNMVIDGKDARIASVEEVAEKTVHVLKQTVPAAVPGIAFLSGGQTDEEATAHLSAMNALGALPWKLTFSYGRALQAAALKAWAGKNENIVVAQKAFCHRARMNHLAALGQWTKDQEKSCA”, the “soluble on expression in E. coli” value is given as “soluble”.

“MTPIPFFNHMLITLLTYMNSTAIVSATDKLPYDDHHIVEDVAITLGLAIKTALGDKRGIKRFSHQIIPMDDALVLVSLDISNRGMAFVNLNLKRSEIGGLATENVPHFFQSFAYNSGITLHISQLSGYNTHHIIEASFKALGLALY”: the “soluble on expression in E. coli” value is “soluble”. The entry for “MSLIDKTKLLQNFQFHLPTGYHKESLARLNFMKGKPLRDAAVLIGFVDRPEGLQVILTKRAEHLRHHPGQISFPGGKFEPEDIHLVNTALRETNEEVGIEDKHIHVFGQLPKLPTISQFNVTPFLAFISPDYKTHIDPNEVESVFEVPANHILNPNKLYSSKFELKRSSHRVFAIPYRQHFIWGMTAQIIESMQKHIISGEGHHHHHH” is “soluble”; for “MYEIIRMGVRNMLITFHSKVAAEVLMRTDDAAPLLRAAGKSFRDAIPERGVFTADQLQSAITGLERAIAAADRSPPDDDEPHPDKEPVHPIELAVGLHQRAFPLLDMMRKTAAAGADLTWEVSRGW” it is “not soluble”; for “EDHEGRHMMAVLPANNKISLSRLNDEFNATFHLVKERMVYRLFTDCEHGAIPPIGSPYHMSTVCDERLANLEHVYLEAGDHETLIKLDRKAFKDLMNDCKYLRFSSEVLH” it is “not soluble”. Consider “MQFSTLIRVAVFAVLAIATLADYDDNSVGTIPVAVDLDYFSNYVKKGGPQGPLRFGKRRGPSGPLRFGKRSSFHVAPAAEDVASWYQ”, for which the “soluble on expression in E. coli” value is listed as “not soluble”.

“MLSGYIAGAIMKQEVILVLDCGATNVRAIAVNRQGKIVARASTPNASDIAMENNTWHQWSLDAILQRFADCCRQINSELTECHIRGIAVTTFGVDGALVDKQGNLLYPIISWKCPRTAAVMDNIERLISAQRLQAISGVGAFSFNTLYKLVWLKENHPQLLERAHAWLFISSLINHRLTGEFTTDITMAGTSQMLDIQQRDFSPQILQATGIPRRLFPRLVEAGEQIGTLQNSAAAMLGLPVGIPVISAGHDTQFALFGAGAEQNEPVLSSGTWEILMVRSAQVDTSLLSQYAGSTCELDSQAGLYNPGMQWLASGVLEWVRKLFWTAETPWQMLIEEARLIAPGADGVKMQCDLLSCQNAGWQGVTLNTTRGHFYRAALEGLTAQLQRNLQMLEKIGHFKASELLLVGGGSRNTLWNQIKANMLDIPLKVLDDAETTVAGAALFGWYGVGEFNSPEEARAQIHYQFRYFYPQTEPEFIEEV”: the “soluble on expression in E. coli” value is on record as “not soluble”. “MGSDKIHHHHHHMMIMLDPFSEKAKELLKGFGSINDFMDAIPKIVSVDDVIERIRVVKNEKLIDKFLDQDNVMDLAQFYALLGALSYSPYGIELELVKKANLIIYSERLKRKKEIKPEEISIDVSTAIEFPTEDVRKIERVYGKIPEYTMKISDFLDLVPDEKLANYYIYEGRVYLKREDLIRIWSKAFERNVERGVNMLYEIRDELPEFYRKVLGEIQAFAEEEFGRKFGEIQGGKLRPEFFPPCIKNALKGVPQGIRNYAITVLLTSFLSYARICPNPPRRNVRVKDCIKDIRVITEEILPIIIEAANRCSPPLFEDQPNEIKNIWYHLGFGYTANPSLEDSGNSTWYFPPNCEKIRANAPQLCTPDKHCKYIRNPLTYYLRRLYLEGRRNAPKRGNKRGKKELLHQ”: the “soluble on expression in E. coli” value is recorded as “not soluble”.

Turning to “MAHHHHHHMAVLVKNYEASLVDMAVQDFIKLGIDGVYTTMKTVVSFEYIFNFTSHMRNLHKYSTNFLELQINDHNKECVTNILQNLTMENIRKSSSASIKAGFEFLNALNDDIKKKHFSENVNYMVMVTITWDIHGNSGVSPNEPFSILCYIKCLPKHGSHVQIDIMCGERKTPNIKYSNVFDVRNKMLKLKSEDSHEVVLYNEKEEITEGLTCNFFCFFNDTLYTANDELVLKGTMREQIIHICEEEGVKLKKEAISIRDVGRFEFCFICSTTRNIIPVKKIILCSENKAEFEKDVHHPVLVKLQQKLREAVEKKKEKYEAYVSAALGV”, the “soluble on expression in E. coli” value is recorded as “not soluble”. In the case of “SAESENVSNNISLYSEETVILDVKGKNKTDVIDEMIGILDKSGVLLDKKKFKEEILKREEISSTGFGMGIAIPHAKTDAVKVPRVAVGVSKEGFDFESEDGSLAHIIFMIAATDNGDNLHLKTLSQLSSKLMNEEFLNELLNSKTSREIVSKLNNEEIKSV”, the “soluble on expression in E. coli” value was “not soluble”. Regarding “SPLKFELCPGRMIGGNNPCFIIAEIGQNHQGDIEIAKKMIKMAKDCGADCAKFQKSELEYKFNKKALERPYTSKHSWGKTYGEHKRHLEFSHEQYRELQQYAKQVGIFFTASGMDEMAVEFLHELDVPFFKVGSGDTNNFPYLKKTAQKGRPMVVSSGMQSMETMQHVYKIVKEHNQNFCILQCTSAYPLEPEDVNLRVITEYQKEFPDIPIGYSGHESGINITVGAVALGAKVVERHVTLDKSWKGSDHAASLEPEELAELVRSIRIVERALGTGLKRMLPCEVPCHDKLGKSVVAKTSIPKGTELTLDMLAVKVAEPKGVAPEEIFQLVGKKVTTDVEEDESITEDVVDSYGKKAKA”, the “soluble on expression in E. coli” value is recorded as “soluble”. On to “MGSDKIHHHHHHMGFIEVQQQFMDYIRDPSLPLPEGIEPRRMKIYRELFFNNIAGFVSSAFPVLKSVYEDDQWQALVQQFFVSHDCKTPIFVEIAGEFLAFLQHEYQMTEDDPVFMLQLAHYEWLELCVAVAPDTPAAQSINTIELNLHRLCLAACAKVAQYAFDVQHISVDYQPIEPTAQANFFCVFRGADDEVAFLQLTPLSAQVLAYIEQMTHSQQGVTVDAIISWLSEHYPQMPNDTLLSGCLPLLQQLAQKGIVISSIES”, for which the “soluble on expression in E. coli” value is “not soluble”.
